Experimental data as given in patent US20170165337A1 (IMMATICS BIOTECHNOLOGIES, published 2017).

Molecular target: T1, HLA-A*02:01 (human)
T1 construct: MHC class I monomer of the UV-ligand exchange assay; also called peptide-receptive MHC molecules; MHC class I
Test: UV peptide-exchange ELISA
Outline: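 Peptide-MHC complexes formed by UV-mediated exchange of a UV-cleavable peptide for the test peptide; exchange yield quantified by β2m ELISA. Diluted 100-fold, captured on streptavidin-coated plates 1 h at 37 °C, detected with HRP anti-β2m and TMB at 450 nm against refolded HLA-A*02:01 monomer standards (15-500 ng/ml).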

Row | peptide exchange yield [%] | Binder
1 | 10 to 20 | LAIVPVNTL
2 | ≥ 75 | FLWEEKFNSL
3 | ≥ 75 | SLYDVSRMYV
4 | 50 to 75 | AASPIITLV
5 | 50 to 75 | ILQDLTFVHL
6 | 50 to 75 | LLLTKPTEA
7 | 50 to 75 | ILEEQPMDMLL
8 | 50 to 75 | GLAESTGLLAV
9 | 50 to 75 | AAALIIHHV
10 | 50 to 75 | IILPVEVEV
11 | 50 to 75 | FLVEPQEDTRL
12 | 50 to 75 | LMADLEGLHL
13 | 50 to 75 | ELLEGSEIYL
14 | 20 to 50 | VVAEELENV
15 | 50 to 75 | ILYGTQFVL
16 | 50 to 75 | LLYNSTDPTL
17 | 50 to 75 | ILSQPTPSL
18 | 50 to 75 | LLFPQIEGIKI
19 | 50 to 75 | LMKDCEAEV
20 | 20 to 50 | VIAELPPKV
21 | 50 to 75 | LLSTLHLLV
22 | 50 to 75 | ILEENIPVL
23 | 50 to 75 | LLVDVEPKV
24 | 50 to 75 | AVLQAVTAV
25 | 50 to 75 | ALLQKLQQL
26 | ≥ 75 | ALLDQLHTLL
27 | 50 to 75 | ILLNEDDLVTI
28 | 20 to 50 | FIAPTGHSL
29 | 50 to 75 | ALDIMIPMV
30 | 50 to 75 | ILLNPAYDVYL
